Data from PMC10501769 (eLife, 2023).

Target: the molecule itself
Assay: SEC

B1: His-tagged Rv0158 protein of Mycobacterium tuberculosis H37Rv (natural protein)
chain: MPSDTSPNGLSRREELLAVATKLFAARGYHGTRMDDVADVIGLNKATVYHYYASKSLILFDIYRQAAEGTLAAVHDDPSWTAREALYQYTVRLLTAIASNPERAAVYFQEQPYITEWFTSEQVAEVREKEQQVYEHVHGLIDRGIASGEFYECDSHVVALGYIGMTLGSYRWLRPSGRRTAKEIAAEFSTALLRGLIRDESIRNQSPLGTRKET
notes: also called Histidine-tagged Rv0158; hexahistidine-tagged Rv0158 protein
stoichiometry N: 2
